Sequences and labels used below:
B1: Raf homolog serine/threonine-protein kinase Raf (Drosophila melanogaster (Fruit fly)), P11346 (parent)
chain: MSSESSTEGDSDLYDPLAEELHNVQLVKHVTRENIDALNAKFANLQEPPAMYLIEYQELTSKLHELEAKEQELMERLNSQDQQEDSSLVERFKEQPHYQNQTQILQQQRQLARVHHGNDLTDSLGSQPGSQCGTLTRQPKILLRAHLPNQQRTSVEVISGVRLCDALMKALKLRQLTPDMCEVSTTHSGRHIIPWHTDIGTLHVEEIFVRLLDKFPIRTHIKHQIIRKTFFSLVFCEGCRRLLFTGFYCSQCNFRFHQRCANRVPMLCQPFPMDSYYQLLLAENPDNGVGFPGRGTAVRFNMSSRSRSRRCSSSGSSSSSKPPSSSSGNHRQGRPPRISQDDRSNSAPNVCINNIRSVTSEVQRSLIMQARPPLPHPCTDHSNSTQASPTSTLKHNRPRARSADESNKNLLLRDAKSSEENWNILAEEILIGPRIGSGSFGTVYRAHWHGPVAVKTLNVKTPSPAQLQAFKNEVAMLKKTRHCNILLFMGCVSKPSLAIVTQWCEGSSLYKHVHVSETKFKLNTLIDIGRQVAQGMDYLHAKNIIHRDLKSNNIFLHEDLSVKIGDFGLATAKTRWSGEKQANQPTGSILWMAPEVIRMQELNPYSFQSDVYAFGIVMYELLAECLPYGHISNKDQILFMVGRGLLRPDMSQVRSDAPQALKRLAEDCIKYTPKDRPLFRPLLNMLENMLRTLPKIHRSASEPNLTQSQLQNDEFLYLPSPKTPVNFNNFQFFGSAGNI
partner: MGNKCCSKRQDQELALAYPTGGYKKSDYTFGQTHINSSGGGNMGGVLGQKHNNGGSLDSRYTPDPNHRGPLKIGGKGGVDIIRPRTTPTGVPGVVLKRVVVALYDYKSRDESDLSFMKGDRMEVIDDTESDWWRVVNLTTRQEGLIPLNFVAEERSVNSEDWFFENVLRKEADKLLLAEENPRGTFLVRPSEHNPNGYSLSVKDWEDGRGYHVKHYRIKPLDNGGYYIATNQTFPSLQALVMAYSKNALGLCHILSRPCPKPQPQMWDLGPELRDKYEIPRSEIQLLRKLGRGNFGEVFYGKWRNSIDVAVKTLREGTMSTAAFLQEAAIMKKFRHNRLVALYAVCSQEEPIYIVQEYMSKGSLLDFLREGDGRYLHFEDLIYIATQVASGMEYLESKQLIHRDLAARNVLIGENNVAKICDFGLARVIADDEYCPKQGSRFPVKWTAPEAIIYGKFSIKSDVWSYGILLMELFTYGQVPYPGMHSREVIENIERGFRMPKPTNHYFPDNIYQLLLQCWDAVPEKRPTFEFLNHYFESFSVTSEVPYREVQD
B2: Raf homolog serine/threonine-protein kinase Raf (Drosophila melanogaster (Fruit fly)), P11346 (parent)
chain: B1 chain

The first test covers variants of B1. To be noted: with src64_drome Src64B.
Consider Y510F, for which the “effect of a mutation on the interaction” value is recorded as “disrupting interaction”.

The variants in a further test derive from B2. To be noted: with dsor1_drome Dsor1, Q24324.
Chain of dsor1_drome Dsor1, Q24324 (Q24324 whole entry): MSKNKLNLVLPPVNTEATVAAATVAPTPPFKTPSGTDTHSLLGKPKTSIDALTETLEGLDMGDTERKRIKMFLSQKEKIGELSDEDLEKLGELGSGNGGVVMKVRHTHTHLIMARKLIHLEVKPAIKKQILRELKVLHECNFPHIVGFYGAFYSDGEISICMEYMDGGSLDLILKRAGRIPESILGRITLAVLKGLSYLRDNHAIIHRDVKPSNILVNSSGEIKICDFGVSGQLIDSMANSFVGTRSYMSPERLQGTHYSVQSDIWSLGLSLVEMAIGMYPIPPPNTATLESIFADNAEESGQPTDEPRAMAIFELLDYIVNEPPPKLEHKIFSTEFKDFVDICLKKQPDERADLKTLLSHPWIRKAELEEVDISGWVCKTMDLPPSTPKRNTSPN
For Y510E, the “effect of a mutation on the interaction” value is on record as “increasing interaction”.
